Measured values taken from patent US20050203025A1.

What was measured:
[1] = molecular target: desmocollin (on Fsk-7.1 mouse mammary epithelial cells) (mouse); assay: cell-based or functional assay
[2] = molecular target: desmoglein (on Fsk-7.1 mouse mammary epithelial cells) (mouse); assay: cell-based or functional assay

| % (single cells + clusters <4 cells); alveolar aggregate formation of Fsk-7.1 cells, 24 hr, no desmoglein peptide [1] [%] | % (single cells + clusters <4 cells); alveolar aggregate formation of Fsk-7.1 cells, 24 hr, together with Ac-CRALC-NH2 [1] [%] | % (single cells + clusters <4 cells); alveolar aggregate formation of Fsk-7.1 cells, 24 hr, together with H-…-OH [1] [%] | % (single cells + clusters <4 cells); alveolar aggregate formation of Fsk-7.1 cells, 24 hr, no desmocollin peptide [2] [%] | % (single cells + clusters <4 cells); alveolar aggregate formation of Fsk-7.1 cells, 24 hr, together with Ac-CFATC-NH2 [2] [%] | % (single cells + clusters <4 cells); alveolar aggregate formation of Fsk-7.1 cells, 24 hr, together with Ac-CYASC-NH2 [2] [%] | % (single cells + clusters <4 cells); alveolar aggregate formation of Fsk-7.1 cells, 24 hr, together with Ac-CYATC-NH2 [2] [%] | % (single cells + clusters <4 cells); alveolar aggregate formation of Fsk-7.1 cells, 24 hr, together with H-…-OH [2] [%] | Binder |
| --- | --- | --- | --- | --- | --- | --- | --- | --- |
| 13.1 | 33.6 | 39.5 |  |  |  |  |  | Ac-CFATC-NH2 (also: cyclic peptide, bond of cyclisation not given here) [Ac-CFATC-NH2 (SEQ ID NO: 5009)] |
| 12.9 | 37.2 | 57.2 |  |  |  |  |  | Ac-CYASC-NH2 (also: cyclic peptide, bond of cyclisation not given here) [Ac-CYASC-NH2 (SEQ ID NO: 5156)] |
| 18.2 | 19.6 | 58.6 |  |  |  |  |  | Ac-CYATC-NH2 (also: cyclic peptide, bond of cyclisation not given here) [Ac-CYATC-NH2 (SEQ ID NO: 4683)] |
|  |  |  | 21.7 | 39.5 | 57.2 | 58.6 | 36.5 | H-LTGYALDSRG-OH [H-…-OH (SEQ ID NO: 5283)] |
|  |  |  | 12.9 | 33.6 | 37.2 | 19.6 |  | Ac-CRALC-NH2 (also: cyclic peptide, bond of cyclisation not given here) [Ac-CRALC-NH2 (SEQ ID NO: 4236)] |
| 28 |  | 36.5 |  |  |  |  |  | H-LTAFATTPDG-OH [H-…-OH (SEQ ID NO: 5284)] |
